Measurements reported in patent publication US20200339678A1 (RIGEL PHARMACEUTICALS, published 2020).
Where two headings read alike, the source gives them in different places.

Legend:
biotinylated human TIGIT = target: T1, biotinylated human TIGIT (human, UniProt Q495A1 22-141, biotinylated (EZ-Link NHS-PEG4-biotin kit)); assay: competitive ELISA, biotin-hTIGIT to coated PVR
T1 construct: extracellular domain; also called human TIGIT extra cellular domain; TIGIT-ECD
T1 sequence (looked up): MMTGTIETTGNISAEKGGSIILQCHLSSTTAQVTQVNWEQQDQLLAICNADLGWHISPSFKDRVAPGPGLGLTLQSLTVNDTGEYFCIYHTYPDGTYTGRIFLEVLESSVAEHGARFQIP
Description: (§1) Antibodies were serially diluted in a 10-point curve starting at 1 μM in 3-fold steps. […] Units are in microM.

[1] = target: T2, human TIGIT fused to a beta galactosidase fragment, expressed on YTS cells (human, UniProt Q495A1 22-244); assay: cell-based or functional assay
T2 sequence (looked up): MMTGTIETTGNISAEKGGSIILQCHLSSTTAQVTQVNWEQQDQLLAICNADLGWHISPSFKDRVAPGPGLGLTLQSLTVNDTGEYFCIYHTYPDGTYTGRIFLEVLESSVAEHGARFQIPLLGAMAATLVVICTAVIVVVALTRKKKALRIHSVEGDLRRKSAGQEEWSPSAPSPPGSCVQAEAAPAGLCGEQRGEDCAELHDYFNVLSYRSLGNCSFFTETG

mouse TIGIT-Fc [2] = target: T3, mouse TIGIT-Fc (mouse, UniProt P86176 29-148); assay: competitive ELISA, mTIGIT-Fc to coated PVR
T3 construct: extracellular domain; also called mouse TIGIT extra cellular domain
T3 sequence (looked up): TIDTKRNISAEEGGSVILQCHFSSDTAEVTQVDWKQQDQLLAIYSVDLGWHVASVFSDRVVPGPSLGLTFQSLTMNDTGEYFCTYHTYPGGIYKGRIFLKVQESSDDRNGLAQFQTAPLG
Description: as §1

[3] = target: T4, human TIGIT expressed in YTS cells, fused to a portion of beta galactosidase (human, UniProt Q495A1 22-244); assay: cell-based or functional assay
T4 sequence (looked up): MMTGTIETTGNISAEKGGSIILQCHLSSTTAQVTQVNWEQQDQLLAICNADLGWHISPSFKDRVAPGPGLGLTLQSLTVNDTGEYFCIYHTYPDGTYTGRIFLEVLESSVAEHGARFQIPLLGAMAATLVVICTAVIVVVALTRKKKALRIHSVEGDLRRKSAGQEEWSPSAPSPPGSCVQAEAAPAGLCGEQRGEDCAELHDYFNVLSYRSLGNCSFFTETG

[4] = target: T5, His-tagged recombinant Mouse TIGIT (mouse, UniProt P86176 29-148, limits assumed); assay: ELISA
T5 construct: Coated on the plate at 0.5 µg/mL in the direct ELISA; not shown: His tag
T5 sequence (looked up): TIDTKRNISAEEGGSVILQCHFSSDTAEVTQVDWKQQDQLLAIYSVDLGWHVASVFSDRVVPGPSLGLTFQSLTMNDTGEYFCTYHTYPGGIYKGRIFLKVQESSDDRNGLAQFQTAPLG
Description: (§2) Binding affinities for antigen binding to anti-TIGIT monoclonal antibodies were determined by ELISA. […] Antibodies to be tested were diluted to 1 μM in PBS buffer containing 1% BSA and diluted 3-fold in a 10-point curve. […] Detection of the secondary antibody was determined using streptavidin-HRP and TMB reagent. All assays were performed at room temperature. Curve-fitting software was used to determine the EC₅₀ for each antibody.

mouse TIGIT-Fc [5] = target: T6, mouse TIGIT-Fc (mouse, UniProt P86176 29-148); assay: competitive ELISA vs coated PVR
T6 construct: extracellular domain; also called mouse TIGIT-ECD; not shown: Fc
T6 sequence (looked up): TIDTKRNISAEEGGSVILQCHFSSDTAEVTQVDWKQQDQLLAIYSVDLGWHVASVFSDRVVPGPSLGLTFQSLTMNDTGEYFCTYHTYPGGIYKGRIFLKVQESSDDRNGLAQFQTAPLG
Description: as §1

[6] = target: T2, human TIGIT fused to a beta …; assay: cell-based or functional assay; remark: listed apart in the source
[7] = target: T7, His-tagged recombinant Human TIGIT (human, UniProt Q495A1 22-141); assay: ELISA
T7 construct: Coated on the plate at 0.5 µg/mL in the direct ELISA; also called hTIGIT; not shown: His tag
T7 sequence (looked up): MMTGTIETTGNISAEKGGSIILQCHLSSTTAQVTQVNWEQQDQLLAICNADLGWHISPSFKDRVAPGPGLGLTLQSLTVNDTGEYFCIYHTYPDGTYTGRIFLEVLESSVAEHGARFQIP
Description: as §2

[8] = target: T8, biotinylated human TIGIT extra cellular domain (human, UniProt Q495A1 22-141, biotinylated using the EZ-Link NHS-PEG4-biotin kit); assay: competitive ELISA vs coated PVR
T8 construct: extracellular domain; also called human TIGIT-ECD
T8 sequence (looked up): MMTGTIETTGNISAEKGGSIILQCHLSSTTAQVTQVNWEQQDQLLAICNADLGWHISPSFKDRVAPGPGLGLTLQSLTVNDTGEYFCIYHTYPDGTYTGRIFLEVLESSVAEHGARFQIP
Description: as §1

[9] = target: T2, human TIGIT fused to a beta …; assay: cell-based or functional assay; remark: listed apart in the source
[10] = target: T2, human TIGIT fused to a beta …; assay: cell-based or functional assay; remark: listed apart in the source

B1: Ab48 (Fab, V domains shown)
VH: EVQLLESGGGLVQPGGSLRLSCAASGFTFSSYSMNWVRQAPGKGLEWVANIKSSGSSTSYADSVKGRFTISRDNSKNTLYLQMNSLRAEDTAVYYCARGPYDVWMDYWGQGTLVTVSS
VL: not shown
notes: clone from a phage library of monovalent human Fabs; also called clone Ab48
Q: B1 was tested. Which IC50 (biotinylated human TIGIT) did it give?
A: 111 nM

Q: What about the “EC50 of induced dimerization (YTS_hTIGIT/hTIGIT, 11 pt)” value (from here on “EC50 … (YTS_hTIGIT/hTIGIT, 11 pt)”) [1] of the same binder?
A: 477 nM

Q: And the IC50 (mouse TIGIT-Fc [2])?
A: 64.7 nM

B2: Ab117 (Fab, V domains shown)
VH: EVQLLESGGGLVQPGGSLRLSCAASGFTFSSYAMSWVRQAPGKGLEWVAAIKSSASTIYYADSVKGRFTISRDNSKNTLYLQMNSLRAEDTAVYYCAREPYSVWMDYWGQGTLVTVSS
VL: not shown
notes: ARE
Q: For B2, which “YTS_hTIGI/hGrbs_EFC_Agonism (EC50)” value [3] is on record?
A: > 1000 nM

Q: And the “YTS_hTIGI/hGrbs_EFC_Antagonism (IC50)” value [3]?
A: > 1000 nM

Q: What about the “YTS_hTIGIT/hTIGIT_EFC (EC50)” value [3] of the same binder?
A: > 1000 nM

Q: And the EC50 [4]?
A: 10.7 nM

Q: What about the IC50 (mouse TIGIT-Fc [5]) of the same binder?
A: 23.4 nM

B3: Ab117 (Fab, V domains shown)
VH: EVQLLESGGGLVQPGGSLRLSCAASGFTFSSYAMSWVRQAPGKGLEWVAAIKSSASTIYYADSVKGRFTISRDNSKNTLYLQMNSLRAEDTAVYYCAREPYSVWMDYWGQGTLVTVSS
VL: not shown
notes: clone from a phage library of monovalent human Fabs; also called clone Ab117
Q: With B3 as the binder, how does the IC50 (mouse TIGIT-Fc [2]) read?
A: 23.4 nM

B4: Ab40 (Fab, V domains shown)
VH: EVQLLESGGGLVQPGGSLRLSCAASGFTFSSYGMNWVRQAPGKGLEWVAGIKYSSGNKYYADSVKGRFTISRDNSKNTLYLQMNSLRAEDTAVYYCARGPYDVWMDYWGQGTLVTVSS
VL: not shown
notes: clone from a phage library of monovalent human Fabs; also called clone Ab40
Q: For B4, which IC50 (biotinylated human TIGIT) is on record?
A: 3.8 nM

Q: And the “EC50 … (YTS_hTIGIT/hTIGIT, 11 pt)” value [1]?
A: 9.5 nM

Q: And the IC50 (mouse TIGIT-Fc [2])?
A: > 1000 nM

Q: And the “IC50 of inhibition of Grb2 recruitment (YTS_hTIGIT/hGrb2, 221_hPVR/ICAM, 11 pt)” value [6]?
A: 2.3 nM

B5: Ab1 (Fab, V domains shown)
VH: EVQLLESGGGLVQPGGSLRLSCAASGFTFSSYAMHWVRQAPGKGLEWVSGISSNGGSTSYADSVKGRFTISRDNSKNTLYLQMNSLRAEDTAVYYCARVPYSVWIDYWGQGTLVTVSS
VL: not shown
notes: clone from a phage library of monovalent human Fabs; also called clone Ab1
Q: What does the source list for B5?
A: IC50 (biotinylated human TIGIT): 89.9 nM; IC50 (mouse TIGIT-Fc [2]): 632 nM

B6: Ab53 (Fab, V domains shown)
VH: EVQLLESGGGLVQPGGSLRLSCAASGFTFSSYSMHWVRQAPGKGLEWVASIKSSSSNKYYADSVKGRFTISRDNSKNTLYLQMNSLRAEDTAVYYCARGPYDVWLDYWGQGTLVTVSS
VL: not shown
notes: clone from a phage library of monovalent human Fabs; also called clone Ab53
Q: B6 was tested. Which IC50 (biotinylated human TIGIT) did it give?
A: 9 nM

Q: And the “EC50 … (YTS_hTIGIT/hTIGIT, 11 pt)” value [1]?
A: 2.7 nM

Q: What about the IC50 (mouse TIGIT-Fc [2]) of the same binder?
A: 35.3 nM

Q: And the “IC50 of inhibition of Grb2 recruitment (YTS_hTIGIT/hGrb2, 221_hPVR/ICAM, 11 pt)” value [6]?
A: 30.3 nM

B7: Ab143 (Fab, V domains shown)
VH: EVQLLESGGGLVQPGGSLRLSCAASGFTFSSYSMHWVRQAPGKGLEWVAAINSNAGSSSYADSVKGRFTISRDNSKNTLYLQMNSLRAEDTAVYYCARVPYGVWMDYWGQGTLVTVSS
VL: not shown
notes: ARV
Q: For B7, which “YTS_hTIGI/hGrbs_EFC_Agonism (EC50)” value [3] is on record?
A: > 1000 nM

Q: What about the “YTS_hTIGI/hGrbs_EFC_Antagonism (IC50)” value [3] of the same binder?
A: 60.2 nM

Q: What about the “YTS_hTIGIT/hTIGIT_EFC (EC50)” value [3] of the same binder?
A: 4.7 nM

Q: What about the EC50 [7] of the same binder?
A: 3.4 nM

Q: What about the EC50 [4] of the same binder?
A: 5.7 nM

Q: And the IC50 (mouse TIGIT-Fc [5])?
A: 22 nM

Q: And the IC50 [8]?
A: 20.3 nM

B8: Ab143 (Fab, V domains shown)
VH: EVQLLESGGGLVQPGGSLRLSCAASGFTFSSYSMHWVRQAPGKGLEWVAAINSNAGSSSYADSVKGRFTISRDNSKNTLYLQMNSLRAEDTAVYYCARVPYGVWMDYWGQGTLVTVSS
VL: not shown
notes: clone from a phage library of monovalent human Fabs; also called clone Ab143
Q: What does the source list for B8?
A: IC50 (biotinylated human TIGIT): 20.3 nM; IC50 of inhibition of Grb2 recruitment (YTS_hTIGIT/hGrb2, 221_hPVR/ICAM, 11 pt) [9]: 60.2 nM; IC50 (mouse TIGIT-Fc [2]): 22 nM; EC50 of induced dimerization (YTS_hTIGIT/hTIGIT, 11 pt) [10]: 4.7 nM
